# Reference: a protein production outcome set (Wang et al. 2014)
# Experiment: label from the status in PepcDB records
row,Sequence,protein production
1,MVSNQRVRLFMLCFCLVNNAVIAATEDENVERKPYIVYMGEATENSLVEAAENHHNLLMTVIGDESKARELKIYSYGKNINGFVARLFPHEAEKLSREEGVVSVFKNTQRQLHTTRSWDFLGLVESKYKRSVGIESNIIVGVLDTGIDVESPSFNDKGVGPPPAKWKGKCVTGNNFTRCNNKVIGAKYFHIQSEGLPDGEGDTAADHDGHGTHTSSTIAGVSVSSASLFGIANGTARGGVPSARIAAYKVCWDSGCTDMDMLAAFDEAISDGVDIISISIGGASLPFFEDPIAIGAFHAMKRGILTTCSAGNNGPGLFTVSNLAPWVMTVAANSLDRKFETVVKLGNGLTASGISLNGFNPRKKMYPLTSGSLASNLSAGGYGEPSTCEPGTLGEDKVMGKVVYCEAGREEGGNGGQGQDHVVRSLKGAGVIVQLLEPTDMATSTLIAGSYVFFEDGTKITEYINSTKNPQAVIFKTKTTKMLAPSISSFSARGPQRISPNILKPDISAPGLNILAAYSKLASVTGYPDDNRRTLFSIMSGTSMACPHAAAAAAYVKSFHPDWSPAAIKSALMTTATPMRIKGNEAELSYGSGQINPRRAIHPGLVYDITEDAYLRFLCKEGYNSTSIGLLTGDNSNNTTKKEYNCENIKRGLGSDGLNYPSLHKQVNSTEAKVSEVFYRTVTNVGYGPSTYVARVWAPKGLRVEVVPKVMSFERPKEKRNFKVVIDGVWDETMKGIVSASVEWDDSRGHLVRSPILLFRSDNDYR,failed
2,MIVTLLGTGDSPGTPILNCHCRTCEDARRKGWERKRFSVMVQNNGKTVLIDTSPDLRRQLLDCGVEKVDAVIWTHCHFDHFGGFGEFYRVQNNVKVYSTPQIHEDIGHFMKFMSYKPVEVEAFENFTIAGMDFTLLPVNHPPVSAVGVKVEWKGYKVVVSGDTNVRIPEATLREMQNPDLLIVEALAPTGRFRKHMNAKEALELAKRLNAGKVVLTHLGHFFPPHHLAIKSYPVGEDYQSFSFGEGRLDEFFGDLEHHHHHH,failed
3,MKLSQQSQAIIESAIQKAINKYTCGCEQTIVTDIHIQPNQNSGELFIYDDEDEELSSVTIDEWTAYEGDDFCEDAERIFRTVLCRMKENGSFDKLTILKPYSFVLVDEDKETISELLLVDDDTLLVNDELLKGLDKELDDFLKDLLEKLEHHHHHH,not failed
4,MPHFTKRPAQPQAALAEAAGLRWLAEASSAVAQVVSADAEQITTVGVETQLPTPDAAFKAGEELARIHLAGAPAFGCPPAGWAGLNYIGTQGQACLSTPTWGVFYSQQRVLPFARRARRRNHLTEHALWVVEAACDLISELPDDVPPARIHGDLWFGNLLFGTDGPVFIDPAAHGGHPETDLAMLDVFGAPYLDEIREGYLSINPLPDGWRERTPMHQLHPLAVHAASHGPSYGVELLHAAKATLKLLDLEHHHHHH,failed
5,MAELDIGQHCQVQHCRQRDFLPFVCDGCSGIFCLEHRSKDSHGCSEVNVVKERPKTDEHKSY,not failed
6,MSLAQIKSLFATRLYHAPLSEHGPALDPAEFAASCYSIAEDDDAGQEWCEREGYPGYTSYASLTDLPWRFPIFADLVKSLDAHVAAFAEDLEFELDGKALRLEDIWINILPEGGVHGSHIHPHSVISGTTYVAMPEGTSALKLEDPRLPFMMAAPTRRKGAREELRTFRSVAPKVGDVLLWESWLRHEVPMNMAEEDRISVSFNYAWGEGHHHHHH,not failed
7,MAAQAAAAAQAAAAAQAAAAQAAQAEAAESWYLALLGFAEHFRTSSPPKIRLCVHCLQAVFPFKPPQRIEARTHLQLGSVLYHHTKNSEQARSHLEKAWLISQQIPQFEDVKFEAASLLSELYCQENSVDAAKPLLRKAIQISQQTPYWHCRLLFQLAQLHTLEKDLVSACDLLGVGAEYARVVGSEYTRALFLLSKGMLLLMERKLQEVHPLLTLCGQIVENWQGNPIQKESLRVFFLVLQVTHYLDAGQVKSVKPCLKQLQQCIQTISTLHDDEILPSNPADLFHWLPKEHMCVLVYLVTVMHSMQAGYLEKAQKYTDKALMRLEKLKMLDCSPILSSFQVILLEHIIMCRLVTGHKATALQEISQVCQLCQQSPRLFSNHAAQLHTLLGLYCVSVNCMDNAEAQFTTALRLTNHQELWAFIVTNLASVYIREGNRHQELYSLLERINPDHSFPVSSHCLRAAAFYVRGLFSFFQGRYNEAKRFLRETLKMSNAEDLNRLTACSLVLLGHIFYVLGNHRESNNMVVPAMQLASKIPDMSVQLWSSALLRDLNKACGNAMDAHEAAQMHQNFSQQLLQDHIEACSLPEHNLITWTDGPPPVQFQAQNGPNTSLASLL,failed
8,MHGAEHLLEIFYLLLAAQVMAFIFKRLNQPVVIGEVLAGVLVGPALLGLVHEGEILEFLAELGAVFLLFMVGLETRLKDILAVGKEAFLVAVLGVALPFLGGYLYGLEIGFETLPALFLGTALVATSVGITARVLQELGVLSRPYSRIILGAAVIDDVLGLIVLAVVNGVAETGQVEVGAITRLIVLSVVFVGLAVFLSTLIARLPLERLPVGSPLGFALALGVGMAALAASIGLAPIVGAFLGGMLLSEVREKYRLEEPIFAIESFLAPIFFAMVGVRLELSALASPVVLVAGTVVTVIAILGKVLGGFLGALTQGVRSALTVGVGMAPRGEVGLIVAALGLKAGAVNEEEYAIVLFMVVFTTLFAPFALKPLIAWTERERAAKE,failed
9,MGCYHPLSGTDGTLMRHTLPIAPQFYVTAPQPCPYLAGRMERKLFTALQGEGAERLNNALSQQGFRRSQNVLYRPSCADCAACLSARIDVSAFRASRSQKRAMRRNAHLTRRATSPWATDEQYELFRRYLDSRHADGGMADMDVFEFAAMIEETPIRSRVIEYAHRDTRALIGVSLTDVLDDGLSMVYSFYDPDLHRDSLGTHMILDHIAIAREAGLPYVYLGYWVPGSPKMGYKSRFSGLEIYLGGRWQAMTDPEAHDAIRHPLSTDPIAEQVANIQLPDRWPTGD,failed
10,MVALPDWMALAPALSLALASLVLLLADSIDPDSTNTGLLAGISVLGSLLSFGFAGWFITAGTGMADNTGVALFNSQLVVDQMALFFMAIVGSVTTLVVLASYDYITEHSYQAEFFALVLLSATGMSLLSAANSLATAFVALELVSLPSYALVAFLKENKGSVEAGLKYFLIGAVSSAVLAYGISLVYAATGVLRFDGVATAISSGTIQTISEGSIQAQSGDPAVPMAILGVGILMIIGGVAFKTASVPFHFWAPEAYEGAPAPISAFLSSASKAAGFVLAFRAFAVAFPIGDLLAAGGAINWVMAFQILAIATMFIGNFAAATQETVKRMLAYSSVGHAGYVLIGLAAVSGSGEGLSLSLSAGMSHLLVYGFMNTGAFLFIALAEYWGVGRRFEDYNGLGKEAPVACAAMTVFLFSLAGLPIGGGFFSKFYLFSATLNVGAWSLAAALIINSALSLFYYSRVVKAMWIEEPTGSRTIESYPMGLYTAVVGAAIVTVLLVPGFNRVSEIAFQAAQLL,failed
11,PINVRVTTMDAELEFAIQPNTTGKQLFDQVVKTVGLREVWFFGLQYVDSKGYSTWLKLNKKVTQQDVKKENPLQFKFRAK,failed
12,MALMSDKFLSIVIPAYNSEKYIEKNLMFLSRQTSNNFEVIVVDDGSTDNTCEVSEACLENFKINHRVIRCEENRGQSVARNIGINYSRGKYILFLDSDDFAENNLVQILERNMFNEPDIVFFDYKRIKEGDSVNVNIAQNFEFGKIKSGEEVFNAYKDNKIRLWTGSLVYNKEFLNKNKLRFLEGAHGAEDLNFIFKALLSSKKVRGIEDSLVFYCQRGDSLTNNPDIYKNITVVESMEDVAKFIDENKLDKKLKEAIEKEFTCEHIMYQILGYLNSETKKDTLSVLKNKNVKKYLKKATIKTNRYGRSMYTYMKMAAYFPNLFIKTYLKNTGKLEHHHHHH,not failed
13,MEKFKYSLLVLFGACSYGILSTIFKLGFINGFSAHQLLGGQYVFGWIGLFLLVLFFSRHKVTKKQFFSLLTVGTTMSMTGIFYAISVEELPASIAVVLLFQFTWIGVIIEAIANRTFPSRDKIISILILFAGTLFAGGVFEGLGQSFSTKGIIFGLLAAVSFSFYVFASGRVATDVPPYTKSFLMTTSATLIVCLFFPPTFLTDGALQAGLWKYAFFLGLFGVVVPVICFSIGVPKVGTGLGTILGAAELPTAIIASITLVHEVVTFMQWIGIIFILVGIFIPQLLTARKERKQNRVHSA,failed
